In PMC5240998 (2017) one finds Ka and koff data, which are given here for one molecule.

Experiment [1] concerns the target T1, GI.1 norovirus (Norwalk virus) virus-like particles (Norwalk virus (norovirus GI.1), UniProt Q83884 1-530).
T1 chain: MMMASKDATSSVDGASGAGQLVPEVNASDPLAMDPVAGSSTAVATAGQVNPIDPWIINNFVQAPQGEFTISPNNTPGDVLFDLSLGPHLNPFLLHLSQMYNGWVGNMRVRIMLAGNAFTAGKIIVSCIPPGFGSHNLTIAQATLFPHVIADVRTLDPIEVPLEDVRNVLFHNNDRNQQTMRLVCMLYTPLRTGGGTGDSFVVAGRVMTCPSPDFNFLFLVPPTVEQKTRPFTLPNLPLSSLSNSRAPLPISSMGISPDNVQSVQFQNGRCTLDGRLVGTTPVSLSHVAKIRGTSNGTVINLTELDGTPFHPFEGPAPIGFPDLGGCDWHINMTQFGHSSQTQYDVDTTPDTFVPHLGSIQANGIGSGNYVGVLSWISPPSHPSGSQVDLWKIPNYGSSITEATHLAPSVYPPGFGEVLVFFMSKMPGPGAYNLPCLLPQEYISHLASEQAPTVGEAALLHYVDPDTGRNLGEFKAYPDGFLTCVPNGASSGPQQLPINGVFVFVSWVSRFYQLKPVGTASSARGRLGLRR
The experiment can be described thus: SPR; kinetic fit; VLPs captured by mAb 3912. (Surface plasmon resonance follows binding to a sensor surface in real time, without labels.)

Experiment [2] concerns the target T2, GI.7 norovirus virus-like particles (norovirus GI.7 (strain )). The experiment can be described thus: SPR; kinetic fit; VLPs captured by mAb 3912.
For experiment [3], the target named is T1, GI.1 norovirus (Norwalk virus) …. The experiment can be described thus: SPR; VLPs captured by mAb 3912.
The target in experiment [4] is T2, GI.7 norovirus virus-like particles. The experiment can be described thus: SPR; VLPs captured by mAb 3912.

B1: Purified NJT-R3-A3 scFv soluble protein (scFv, V domains shown)
VH: EVQLLESGGGLVQPGGSLRLSCAASGFTFSSYAMSWVRQAPGKGLEWVSSIPRPGLHTSYADSVKGRFTISRDNSKNTLYLQMNSLRAEDTAVYYCAKHLRTFDYWGQGTLVTVSS
VL: DIQMTQSPSSLSASVGDRVTITCRASQSISSYLNWYQQKPGKAPKLLIYGASRLQSGVPSRFSGSGSGTDFTLTISSLQPEDFATYYCQQLPAVPITFGQGTKVEIK
What is called koff is the rate constant with which the complex falls apart. Turning to B1, the values for the Ka in experiment [1] and in experiment [2] were 3.69e+07 M⁻¹ and 2.02e+07 M⁻¹, respectively. Further, the koff came out at 0.00149 s⁻¹ in experiment [3] and 0.00224 s⁻¹ in experiment [4].
